B1: p75^NTR TMD-AraTM chimera, wild type (MBP - p75^NTR TMD - AraC) [human] / itself (parent)
chain: NLIPVYCSILAAVVVGLVAYIAFKRW

The variants in the experiment derive from B1. As to the kind of experiment: AraTM assay. Particulars: with itself, 100% = WT TMD without drug, read off a plot.

The record followed here is publication PMC12514245, “Impaired migration and lung invasion of human melanoma by a novel small molecule targeting the transmembrane domain of death receptor p75^NTR” (EMBO Molecular Medicine, 2025).

NLIGVYCSILAAVVVGLVAYIAFKRW: the percent of parent reads like this: (7.5 µM Div17E5) 68%; (15 µM Div17E5) 65%; (20 µM Div17E5) 55%; (50 µM Div17E5) 57%; (no drug (0 µM Div17E5)) 100%.

For NLIPAYCSILAAVVVGLVAYIAFKRW, the percent of parent is, setting by setting: (7.5 µM Div17E5) 92%; (15 µM Div17E5) 93%; (20 µM Div17E5) 95%; (50 µM Div17E5) 92%; (no drug (0 µM Div17E5)) 97%.

In the case of NLAPVYCSILAAVVVGLVAYIAFKRW, the percent of parent is, setting by setting: (7.5 µM Div17E5) 97%; (15 µM Div17E5) 97%; (20 µM Div17E5) 97%; (50 µM Div17E5) 100%; (no drug (0 µM Div17E5)) 100%.
